In patent publication US20190300590A1 (PROTAGONIST THERAPEUTICS, published 2019):
*1 amine or outer side, *2 acyl side, *3 side chain or, on linkers, in order; H or OH if unused. Bridges are numbered along the chain shown (N, C = ends). [ ]: non-standard residue; d: D form. Phe(4-OMe) = 4-methoxy-L-phenylalanine (O-methyl-L-tyrosine), COc1ccc(C[C@H](N[*:1])C(=O)[*:2])cc1; 1Nal = N[C@@H](Cc1cccc2ccccc12)C(=O)O; 2Nal = N[C@@H](Cc1ccc2ccccc2c1)C(=O)O; AEF = NCCOc1ccc(C[C@H](N)C(=O)O)cc1; NMeQ = CN[C@@H](CCC(N)=O)C(=O)O; Cit = NC(=O)NCCC[C@H](N)C(=O)O; αMeK = C[C@](N)(CCCCN)C(=O)O; Abu = CC[C@H](N)C(=O)O; Aib = CC(C)(N)C(=O)O; AEA = NCCOCC(=O)O; βAla = NCCC(=O)O

B1: [Ac-[Pen]-NTWQ-[Pen]-[Phe(4-CONH2)]-[2-Nal]-[Aib]-KNN-NH2]2DIG (peptide)
peptide: XNTWQXFXXKNN
modifications: Ac; Pen-Pen disulfide; Phe(4-CONH2); 2-Nal; Aib; NH2; DIG linker joins the two subunits
B2: [Ac-[Pen]-NTWQ-[Pen]-[Phe(4-CONH2)]-[2-Nal]-[4-amino-4-carboxy-tetrahydropyran]-KNN-NH2]2DIG (peptide)
peptide: XNTWQXFXXKNN
modifications: Ac; Pen-Pen disulfide; Phe(4-CONH2); 2-Nal; 4-amino-4-carboxy-tetrahydropyran; NH2; DIG linker joins the two subunits
B3: [Ac-[Pen]-NTWQ-[Pen]-[Phe(4-CONH2)]-[2-Nal]-[Achc]-KNN-NH2]2DIG (peptide)
peptide: XNTWQXFXXKNN
modifications: Ac; Pen-Pen disulfide; Phe(4-CONH2); 2-Nal; Achc; NH2; DIG linker joins the two subunits
B4: [Ac-[Pen]-NTWQ-[Pen]-[Phe(4-CONH2)]-[2-Nal]-[Acvc]-KNN-NH2]2DIG (peptide)
peptide: XNTWQXFXXKNN
modifications: Ac; Pen-Pen disulfide; Phe(4-CONH2); 2-Nal; Acvc; NH2; DIG linker joins the two subunits

target: Rat IL-23R_huFC (rat); assay: rat ELISA vs IL-23

Binder	IC50 [nM]
Ac-[Abu]QTWQC[Phe(4-OMe)][2Nal][αMeK]ENG-NH2 (thioether 1-6) [Ac-Cyclo-[[Abu]-QTWQC]-[Phe(4-OMe)]-[2-Nal]-[α-MeLys]-ENG-NH2]	10 to 25
Ac-[Abu]QTWQC[AEF][2Nal][Aib]QNG-NH2 (thioether 1-6) [Ac-Cyclo-[[Abu]-QTWQC]-[Phe[4-(2-aminoethoxy)]]-[2-Nal]-[Aib]-QNG-NH2]	10 to 25
Ac-[Abu]QTWQC[AEF][2Nal][Aib]K(Ac)NA-NH2 (thioether 1-6) [Ac-Cyclo-[[Abu]-QTWQC]-[Phe[4-(2-aminoethoxy)]]-[2-Nal]-[Aib]-[Lys(Ac)]-NA-NH2]	10 to 25

target: T1, Rat IL-23R_huFC (rat; human, UniProt F1LX96 39-369); assay: rat IL-23R competitive ELISA
T1 sequence: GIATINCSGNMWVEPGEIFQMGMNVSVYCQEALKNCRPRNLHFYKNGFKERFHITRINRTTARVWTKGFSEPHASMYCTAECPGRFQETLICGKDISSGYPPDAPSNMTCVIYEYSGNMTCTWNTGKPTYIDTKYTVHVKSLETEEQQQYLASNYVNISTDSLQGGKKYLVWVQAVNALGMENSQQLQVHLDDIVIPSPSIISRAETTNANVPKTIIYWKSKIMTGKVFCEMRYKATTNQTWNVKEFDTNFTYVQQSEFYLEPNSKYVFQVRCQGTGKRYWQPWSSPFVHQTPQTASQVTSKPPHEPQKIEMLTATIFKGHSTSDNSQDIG

Binder	IC50 [nM]
Ac-C[NMeQ]TWQCYWRVFG[AEA][dK]-NH2 (disulfide 1-6 (inferred)) [Ac-C-[N-MeQln]-TWQCYWRVFG-[AEA]-[(D)Lys]-NH2]	85
Ac-CNTWQCYWRVFG[AEA][dK]-NH2 (disulfide 1-6 (inferred)) [Ac-CNTWQCYWRVFG-[AEA]-[(D)Lys]-NH2]	79
Ac-CQTWQCYWRVFG[AEA][dK]-NH2 (disulfide 1-6 (inferred)) [Ac-CQTWQCYWRVFG-[AEA]-[(D)Lys]-NH2]	62
CRTWQCYWRVFGXK (not fully specified; Ac-; [N-MeArg]; [AEA]; [(D)Lys]; -NH2) [Ac-C-[N-MeArg]-TWQCYWRVFG-[AEA]-[(D)Lys]-NH2]	192
Ac-CRTWQCYWRENGA[dK]-NH2 (cysteine pairing not given here) [Ac-CRTWQCYWRENGA-[(D)Lys]-NH2]	86
Ac-CRTWQCYWREYGA[dK]-NH2 (cysteine pairing not given here) [Ac-CRTWQCYWREYGA-[(D)Lys]-NH2]	80
Ac-CADWVCYWRKFG[βAla][dK]-NH2 (cysteine pairing not given here) [Ac-CADWVCYWRKFG-[βAla]-[(D)Lys]-NH2]	33
Ac-CADWVCY[1Nal][Cit]VFG[βAla][dK]-NH2 (disulfide 1-6 (inferred)) [Ac-CADWVCY-[1-Nal]-[Cit]-VFG-[β-Ala]-[(D)Lys]-NH2]	22
CXTWQCYWRVFGXK (Ac-; [Cit]; [AEA]; [(D)Lys]; -NH2) [Ac-C-[Cit]-TWQCYWRVFG-[AEA]-[(D)Lys]-NH2]	76
CXTWQCYWRVFGXK (Ac-; [AEA]; [(D)Lys]; -NH2) [Ac-C-CYWRVFG-[AEA]-[(D)Lys]-NH2, listing 1 of 2 here]	51
CXTWQCYWRVFGXK (Ac-; [AEA]; [(D)Lys]; -NH2) [Ac-C-CYWRVFG-[AEA]-[(D)Lys]-NH2, listing 2 of 2 here]	100

target: T2, IL-23R on DB cells (human, UniProt Q5VWK5 24-629); assay: cell-based or functional assay
T2 sequence (looked up): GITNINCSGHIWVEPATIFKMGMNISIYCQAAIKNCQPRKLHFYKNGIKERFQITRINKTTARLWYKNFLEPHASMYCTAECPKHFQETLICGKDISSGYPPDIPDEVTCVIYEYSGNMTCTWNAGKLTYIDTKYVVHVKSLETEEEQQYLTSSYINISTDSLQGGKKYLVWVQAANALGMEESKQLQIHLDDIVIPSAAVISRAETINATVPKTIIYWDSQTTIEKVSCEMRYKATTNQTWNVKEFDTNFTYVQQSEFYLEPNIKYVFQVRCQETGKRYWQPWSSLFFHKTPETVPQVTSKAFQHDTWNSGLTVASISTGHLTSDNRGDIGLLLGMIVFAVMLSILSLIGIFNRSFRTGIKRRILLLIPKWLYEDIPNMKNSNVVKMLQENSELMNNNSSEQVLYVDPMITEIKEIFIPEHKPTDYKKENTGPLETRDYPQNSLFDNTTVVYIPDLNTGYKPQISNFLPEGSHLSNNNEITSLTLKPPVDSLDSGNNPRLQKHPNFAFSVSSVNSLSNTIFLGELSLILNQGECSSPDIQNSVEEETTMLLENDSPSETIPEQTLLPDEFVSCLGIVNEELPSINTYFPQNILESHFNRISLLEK

Binder	pStat3 HTRF IC50 [nM]
B1	< 10
B2	< 10
B3	< 10
B4	< 10

target: T3, IL-23R on human cells (IL-23R-expressing DB cells; human NK cells) (human, UniProt Q5VWK5 24-629); assay: cell-based or functional assay
T3 sequence (looked up): T2 sequence (looked up)

Binder	pStat3 HTRF IC50 [nM]
Ac-[Abu]QTWQC[Phe(4-OMe)][2Nal][αMeK]ENG-NH2 (thioether 1-6) [Ac-Cyclo-[[Abu]-QTWQC]-[Phe(4-OMe)]-[2-Nal]-[α-MeLys]-ENG-NH2]	< 10
Ac-[Abu]QTWQC[AEF][2Nal][Aib]QNG-NH2 (thioether 1-6) [Ac-Cyclo-[[Abu]-QTWQC]-[Phe[4-(2-aminoethoxy)]]-[2-Nal]-[Aib]-QNG-NH2]	< 10
Ac-[Abu]QTWQC[AEF][2Nal][Aib]K(Ac)NA-NH2 (thioether 1-6) [Ac-Cyclo-[[Abu]-QTWQC]-[Phe[4-(2-aminoethoxy)]]-[2-Nal]-[Aib]-[Lys(Ac)]-NA-NH2]	< 10

target: T3, IL-23R on human cells …; assay: cell-based or functional assay; remark: another data set of the same source

Binder	NK cell assay IC50 (IFNγ) [nM]
Ac-[Abu]QTWQC[Phe(4-OMe)][2Nal][αMeK]ENG-NH2 (thioether 1-6) [Ac-Cyclo-[[Abu]-QTWQC]-[Phe(4-OMe)]-[2-Nal]-[α-MeLys]-ENG-NH2]	< 25
Ac-[Abu]QTWQC[AEF][2Nal][Aib]QNG-NH2 (thioether 1-6) [Ac-Cyclo-[[Abu]-QTWQC]-[Phe[4-(2-aminoethoxy)]]-[2-Nal]-[Aib]-QNG-NH2]	< 25
Ac-[Abu]QTWQC[AEF][2Nal][Aib]K(Ac)NA-NH2 (thioether 1-6) [Ac-Cyclo-[[Abu]-QTWQC]-[Phe[4-(2-aminoethoxy)]]-[2-Nal]-[Aib]-[Lys(Ac)]-NA-NH2]	< 25

target: T4, IL23R_huFC (human, UniProt Q5VWK5 24-353); assay: human ELISA vs IL-23
T4 sequence (looked up): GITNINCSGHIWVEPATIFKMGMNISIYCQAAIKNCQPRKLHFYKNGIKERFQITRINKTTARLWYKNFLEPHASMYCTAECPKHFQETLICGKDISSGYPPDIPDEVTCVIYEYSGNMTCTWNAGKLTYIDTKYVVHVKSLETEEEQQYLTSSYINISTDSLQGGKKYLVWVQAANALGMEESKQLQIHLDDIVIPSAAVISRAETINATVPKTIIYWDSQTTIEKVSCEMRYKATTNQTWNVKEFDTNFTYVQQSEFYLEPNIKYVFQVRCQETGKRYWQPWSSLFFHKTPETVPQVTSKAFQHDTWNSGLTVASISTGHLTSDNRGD

Binder	IC50 [nM]
Ac-[Abu]QTWQC[AEF][2Nal][Aib]QNG-NH2 (thioether 1-6) [Ac-Cyclo-[[Abu]-QTWQC]-[Phe[4-(2-aminoethoxy)]]-[2-Nal]-[Aib]-QNG-NH2]	< 10
Ac-[Abu]QTWQC[AEF][2Nal][Aib]K(Ac)NA-NH2 (thioether 1-6) [Ac-Cyclo-[[Abu]-QTWQC]-[Phe[4-(2-aminoethoxy)]]-[2-Nal]-[Aib]-[Lys(Ac)]-NA-NH2]	< 10

target: T4, IL23R_huFC; assay: human ELISA vs IL-23; remark: another data set of the same source

Binder	IC50 [nM]
Ac-[Abu]QTWQC[Phe(4-OMe)][2Nal][αMeK]ENG-NH2 (thioether 1-6) [Ac-Cyclo-[[Abu]-QTWQC]-[Phe(4-OMe)]-[2-Nal]-[α-MeLys]-ENG-NH2]	10 to 25
